From patent US8048433B2, “Deacylation of LPS in gram negative bacteria” (priority 2004, dated 2011)

What was measured:
[1] = In vitro modification assay with refolded or membrane-localized PagL (Tricine-SDS-PAGE); format: biochemical; settings: purified N. meningitidis LPS
Method: Refolded PagL(Pa)(−) (10 mg/ml) or cell envelopes isolated from E. coli BL21 Star™ (DE3) containing the empty vector pET-11a or the pPagL plasmids were diluted 10 fold in double distilled water. 4 μl of the diluted refolded protein or cell envelope solution was incubated in 50 mM Hepes (pH 8.0), 0.1% Triton X-100, 0.5 M NaCl, and 0.75 nmol N. meningitidis L3-LPS in a final volume of 10 μl at 37° C. for 16 h. To test whether the reaction was dependent on divalent cations, 5 mM EDTA was added into the reaction with the refolded PagL(Pa)(−). The reactions were terminated by boiling in sample buffer (28), after which the samples were treated with 0.5 mg/ml proteinase K for 1 hour at 55° C., followed by 10 min incubation at 95° C. The samples were diluted 25 fold by adding sample buffer, after which 2 μl of the samples were analysed by Tricine-SDS-PAGE (see above).

B. pertussis LPS = assay: Expression of PagL and PagP in B. pertussis strain Tohama, lipid A analysed by ESI-MS and Tricine-SDS-PAGE; format: cell-based; settings: for relative abundance of lipid A molecular ions: palmitoylate: Table III total of palmitoylated species
Method: LPS was isolated using the hot phenol/water extraction method (Westphal and Jann, Methods Carbohydr. Chem. 5; 83-91, 1965) with slight modifications. In short, bacteria were grown in THIJS medium in the presence of 1 mM IPTG (end concentration) for 64 h. Cells were harvested by centrifugation and resuspended in 40 mM sodium phosphate buffer (pH 7.0) containing 5 mM EDTA. The cells were treated overnight with lysozyme at 4° C., after which an equal volume of phenol was added. The suspension was heated to 70° C., incubated for 30 min while shaking, and subsequently cooled to 10° C., after which phases were separated by centrifugation for 10 min at 8,000×g. The upper phase was collected and the extraction was repeated after adding an equal volume of distilled water to the lower phase. The two upper phases were combined, dialysed against tap water until the phenol odour disappeared, freeze-dried, and subsequently taken up in distilled water. The LPS was subsequently pelleted by centrifugation for 3 h at 150,000×g and dissolved in distilled water, after which the LPS concentration was determined by analysing the 3-hydroxytetradecanoic acid content, using a 6890 Agilent gas chromatograph, as described (Welch, Clin. Microbiol. Rev. 1991). For ESI-MS, a 200 μl aliquot of isolated LPS (50 nmol/ml) was freeze-dried and taken up in 0.1 ml 2% acetic acid. The mixture was heated for 2 h at 95° C. to hydrolyse the LPS and release the lipid A moiety. Subsequently, the mixture was cooled to room temperature and centrifuged for 10 min at 16,100×g. The pellet was washed twice in 0.1 ml double-distilled water, taken up in 0.1 ml double-distilled water, and 0.3 ml chloroform/methanol (2:1, v/v) was added. After vigorous vortexing, phases were separated by centrifugation for 10 min at 16,100×g. The […] phase was then used for structural analysis of purified lipid A by nanoelectrospray tandem MS on a Finnigan LCQ in the negative ion mode (Wilm and Mann, Anal. Chem. 1996).
To express PagP and PagL in B. pertussis strain Tohama, the pagL gene of B. bronchiseptica (pagL(Bb)) and the pagP gene of B. pertussis (pagP(Bp)) were expressed from the broad-host range low-copy number expression vector pMMB67EH. As a control, a strain expressing the pagP gene of E. coli (pagP(Ec)) was also constructed. LPS was isolated from wild-type, PagP-expressing, or PagL-expressing B. pertussis strain Tohama and analysed by Tricine-SDS-PAGE. LPS isolated from the PagL(Bb)-expressing strain appeared unaffected on the gel, whereas that from the PagP-expressing appeared potentially modified, since a band with a lower electrophoretic mobility than that of wild-type B. pertussis LPS was detected (FIG. 14). Furthermore, as compared to the PagP(Bp)-expressing strain, the modification-efficiency appeared higher in the PagP(Ec)-expressing strain (FIG. 14). To evaluate the possible LPS modifications in further detail, the lipid A moieties of the strains were analysed by ESI-MS in the negative-ion mode. […] The peak at m/z 1557 represents the characteristic penta-acylated bis-phosphate species that is typically found in B. pertussis (Caroff et al., Microbes. Infect., 1994), whereas the peak at m/z 1477 corresponds to a penta-acylated mono-phosphate species. The two remaining peaks at m/z 1307 and 1251 represent deacylated lipid A species of the molecular ion at m/z 1477, which miss the primary 3-hydroxydecanoic acid residue at the 3 position or a primary 3-hydroxytetradecanoic acid residue (either at the 2 or the 3′ position), respectively. […] Furthermore, the large majority of lipid A species are mono-phosphate forms (˜80%). […]

E. coli LPS = assay: In vivo modification of E. coli LPS by PagL expressed in E. coli BL21 Star (DE3) (Tricine-SDS-PAGE, GC/MS, ESI-MS); format: cell-based; settings: GC/MS and ESI-MS data
Method: To LPS-containing samples 0.5 mg/ml proteinase K (end concentration) was added to the sample buffer (28). The samples were incubated for 60 min at 55° C., followed by 10 min at 95° C. to inactivate proteinase K. The samples was then diluted 10 fold by adding sample buffer, after which 2 μl of the sample were applied to a Tricine-SDS-PAGE gel (30). The bromophenol blue was allowed to run into the separating gel at 35 V, after which the voltage was increased to 105 V. After the front reached the bottom of the gel, the samples were left running for another 45 min. The gels were fixed overnight in water/ethanol/acetic acid 11:8:1 (v/v/v) and subsequently stained with silver as described (31).
LPS was isolated using the hot phenol/water extraction method (3). […]
To study whether the cloned PagL homologs were active on E. coli LPS, IPTG was added to exponentially growing E. coli BL21 Star™ (DE3) cells containing the empty vector pET-11a or the pPagL plasmids, and after various incubation periods, samples equivalent to one OD600 unit were collected and their LPS content was analyzed by Tricine-SDS-PAGE. […]
Structural Analysis of PagL-Modified LPS: to determine its fatty acid content, LPS was isolated from bacteria that were grown in the presence of 10 mM MgCl2 to suppress PhoP/PhoQ-regulated modifications of lipid A and analyzed by GC/MS. […]

[2] = B. pertussis strain Tohama, ESI-MS

B1: PagL(Pa)(−): P. aeruginosa PagL without its signal sequence, refolded in vitro from inclusion bodies and purified (protein, UniProt Q9HVD1 24-173, looked up)
Lipid A deacylase PagL: ADVSAAVGATGQSGMTYRLGLSWDWDKSWWQTSTGRLTGYWDAGYTYWEGGDEGAGKHSLSFAPVFVYEFAGDSIKPFIEAGIGVAAFSGTRVGDQNLGSSLNFEDRIGAGLKFANGQSVGVRAIHYSNAGLKQPNDGIESYSLFYKIPI
- in vitro deacylation of LPS in the presence of EDTA ([1]; 5 mM EDTA, FIG. 13B): deacylation of LPS was still observed
- in vitro modification of externally added LPS ([1]; 37° C., detergent-containing buffer, FIG. 13): converted into a form with a higher electrophoretic mobility

B2: PagP(Ec): palmitoyl transferase PagP of E. coli, expressed in B. pertussis as a control (protein, UniProt P37001 26-186, looked up)
Lipid A palmitoyltransferase …: NADEWMTTFRENIAQTWQQPEHYDLYIPAITWHARFAYDKEKTDRYNERPWGGGFGLSRWDEKGNWHGLYAMAFKDSWNKWEPIAGYGWESTWRPLADENFHLGLGFTAGVTARDNWNYIPLPVLLPLASVGYGPVTFQMTYIPGTYNNGNVYFAWMRFQF
- share of the total lipid A population palmitoylated (B. pertussis LPS; B. pertussis strain Tohama expressing PagP, ESI-MS): ~47%
- relative abundance of lipid A molecular ions: palmitoylate (B. pertussis LPS; [2]): 46.5
- modification-efficiency (B. pertussis LPS; Tricine-SDS-PAGE of B. pertussis LPS, compared to the PagP(Bp)-expressing strain, FIG. 14): higher

B3: PagL(Bb): lipid A 3-O-deacylase PagL of B. bronchiseptica, SEQ ID No. 1 (protein, listed as Bordetella sp.)
chain: MQFLKKNKPLFGIVTLALACATAQAQPTQGGVSLHYGIGDHYQRVTLNYETPTLWSHQFGGNWGRLDLTPELGASYWWADGSRSPGHVWQASAIPMFRWWTGERFYIEAGIGATVFSSTSFADKRIGSAFQFGDHIGLGFLLTPSNRIGLRYSHFSNAGIKEPNPGLDIVQLTYTYQF
- relative content of lipid A species that miss the 3-hydroxydecanoic acid residue at their 3 position (B. pertussis LPS; B. pertussis strain Tohama, ESI-MS peak heights): more than 92%
- relative abundance of lipid A molecular ions: palmitoylate (B. pertussis LPS; [2]): 0.0
- lipid A 3-O-deacylase activity in B. pertussis (B. pertussis LPS; B. pertussis strain Tohama, pMMB67EH expression, ESI-MS): active in B. pertussis
- lipid A deacylase activity (E. coli LPS): active lipid A deacylases

B4: PagL(Pa): PagL homolog (lipid A 3-O-deacylase) of P. aeruginosa, SEQ ID No:6 (protein, listed as Pseudomonas aeruginosa)
chain: MKKLLPLAVLAALSSVHVASAQAADVSAAVGATGQSGMTYRLGLSWDWDKSWWQTSTGRLTGYWDAGYTYWEGGDEGAGKHSLSFAPVFVYEFAGDSIKPFIEAGIGVAAFSGTRVGDQNLGSSLNFEDRIGAGLKFANGQSVGVRAIHYSNAGLKQPNDGIESYSLFYKIPI
- lipid A deacylase activity (E. coli LPS): active lipid A deacylases
